Experimental findings from PMC2993699 are described below.

The target in test [1] is Pph with a C-terminal strep-tag and an N-terminal his-tag (His10-Ppr(Δ1-601)-StrepTag II, pET16b-Pph) (R. centenaria). The test is described as follows: SEC; crude soluble extract of E. coli C41 (DE3) with pET16b-Pph on Sephadex G-200, non-reducing conditions, 20 mM Tris pH 7.4, 40 mM NaCl, 20% glycerol; fractions by SDS-PAGE and Western blot against strep tag II.
Test [2] has the same target. Kind of test: resonant mirror spectroscopy (Iasys biosensor cuvette); purified Pph (50 μg/ml) immobilised on an aminosilane cuvette (via strep-tag to streptactin by the results); increasing concentrations of purified Rc-CheW, 30 minutes each; fractional saturation, Scatchard plot.
In test [3] the target is R. centenaria CheW (Rc-CheW) containing an N-terminal his-tag (R. centenaria) (UniProt P72251). The test is described as follows: pull-down; as a1, residual ATP hydrolyzed by adding apyrase.
UniProt P72251, sequence (P72251 entry or part of it): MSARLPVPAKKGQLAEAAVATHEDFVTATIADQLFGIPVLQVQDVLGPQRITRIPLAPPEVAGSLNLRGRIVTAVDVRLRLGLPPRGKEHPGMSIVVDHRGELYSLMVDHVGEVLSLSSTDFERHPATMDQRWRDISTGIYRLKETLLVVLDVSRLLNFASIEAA
The target is the same in test [4]. Kind of test: pull-down; as a1, with increasing amounts of added ATP (0-20 mM).
The target is the same in test [5]. The test is described as follows: pull-down; 50 μg purified his-Rc-CheW (bait) mixed with one in vitro translated [35S]-labelled prey, overnight at 37°C, bound to Cu(II)-Sepharose in 20 mM sodium phosphate pH 7.7, 200 mM NaCl, 50 mM imidazole; eluted with 500 mM imidazole; phosphorimaging; no ATP added (low ATP level, 2 mM, from the translation reaction).

As a reminder, the stoichiometry N is a count of units in the complex or per binding partner. In test [1], “Pph with a C-terminal strep-tag and an N-terminal his-tag (His10-Ppr(Δ1-601)-StrepTag II, pET16b-Pph) (domain or fragment)” gave a stoichiometry N of 2. Broadly, the Kd is the constant that tells how readily two partners part at equilibrium. Consider “R. centenaria CheW (Rc-CheW) containing an N-terminal his-tag (from UniProt P72251 1-165) (natural protein)”, for which the Kd in test [2] worked out at 130 nM.

As to “histidine kinase domain Pph of Ppr, in vitro translated and [35S]-methionine labelled (from pSK4) (domain or fragment)”, the bound Pph with apyrase (% of input) in test [3] came out at 5%. In test [4], this substance showed a Rc-CheW-bound Pph with added ATP (% of input) of 24%. Besides, the co-elution rate (% of input Pph) in test [5] came out at 13%.
